This note sets out measurements from paper PMC8726653, “TNF-induced necroptosis initiates early autophagy events via RIPK3-dependent AMPK activation, but inhibits late autophagy” (Autophagy, 2021).

This experiment deals with T1, His-AMPK [His-HsPRKAA1 (11–559) + HsPRKAB2 (1–272) + HsPRKAG1 (1–331)] (human, UniProt Q13131 11-559; O43741 1-272; P54619 1-331).
T1 construct: also called DU32489; source: obtained: MRC PPU Reagents and Services, University of Dundee (DU32489); copies: + +
Nature of the experiment: pull-down; 4 µg GST-MmRIPK3 (or GST) on glutathione-Sepharose beads incubated with 1 µg His-AMPK overnight at 4°C in 0.5% Nonidet P-40 buffer (50 mM Tris pH 8.0, 100 mM NaCl, 6 mM EDTA, 6 mM EGTA, 1 mM DTT); blot for AMPK and GST. The note with it: both partners purified.

T1 sequence (Q13131 11-559, chain 1 of 3): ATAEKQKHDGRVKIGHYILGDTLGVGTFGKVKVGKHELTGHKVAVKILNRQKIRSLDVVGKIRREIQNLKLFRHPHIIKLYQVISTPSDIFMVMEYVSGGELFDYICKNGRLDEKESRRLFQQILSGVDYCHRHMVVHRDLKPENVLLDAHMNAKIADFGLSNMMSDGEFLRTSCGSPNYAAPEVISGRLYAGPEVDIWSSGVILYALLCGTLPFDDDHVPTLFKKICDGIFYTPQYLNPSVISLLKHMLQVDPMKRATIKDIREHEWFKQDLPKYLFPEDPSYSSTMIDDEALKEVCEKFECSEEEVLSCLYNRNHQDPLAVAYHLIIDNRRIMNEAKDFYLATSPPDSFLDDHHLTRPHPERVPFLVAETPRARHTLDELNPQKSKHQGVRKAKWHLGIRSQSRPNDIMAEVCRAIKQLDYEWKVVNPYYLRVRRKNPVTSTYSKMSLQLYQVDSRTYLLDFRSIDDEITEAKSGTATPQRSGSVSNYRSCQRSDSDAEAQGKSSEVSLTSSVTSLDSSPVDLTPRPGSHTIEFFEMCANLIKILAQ
T1 sequence (O43741 whole entry, chain 2 of 3): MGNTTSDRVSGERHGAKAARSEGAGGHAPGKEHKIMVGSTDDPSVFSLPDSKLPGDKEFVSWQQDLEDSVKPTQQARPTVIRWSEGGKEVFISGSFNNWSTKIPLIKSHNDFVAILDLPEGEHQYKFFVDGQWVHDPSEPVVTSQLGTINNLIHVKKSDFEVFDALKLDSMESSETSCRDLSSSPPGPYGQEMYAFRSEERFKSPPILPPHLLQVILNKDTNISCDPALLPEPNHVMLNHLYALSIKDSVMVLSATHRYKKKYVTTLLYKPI
T1 sequence (P54619 whole entry, chain 3 of 3): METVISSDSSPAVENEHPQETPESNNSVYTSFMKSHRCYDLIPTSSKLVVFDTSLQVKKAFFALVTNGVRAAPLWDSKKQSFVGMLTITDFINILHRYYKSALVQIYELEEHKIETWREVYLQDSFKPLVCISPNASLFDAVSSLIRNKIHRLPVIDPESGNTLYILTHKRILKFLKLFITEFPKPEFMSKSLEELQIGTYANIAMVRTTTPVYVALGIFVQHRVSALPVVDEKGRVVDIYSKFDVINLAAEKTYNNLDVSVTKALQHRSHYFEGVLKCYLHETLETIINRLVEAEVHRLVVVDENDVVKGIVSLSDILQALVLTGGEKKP

B1: GST-MmRIPK3 (enzyme, mouse, UniProt Q9QZL0 1-486, looked up)
chain: MSSVKLWPTGASAVPLVSREELKKLEFVGKGGFGVVFRAHHRTWNHDVAVKIVNSKKISWEVKAMVNLRNENVLLLLGVTEDLQWDFVSGQALVTRFMENGSLAGLLQPECPRPWPLLCRLLQEVVLGMCYLHSLNPPLLHRDLKPSNILLDPELHAKLADFGLSTFQGGSQSGSGSGSGSRDSGGTLAYLDPELLFDVNLKASKASDVYSFGILVWAVLAGREAELVDKTSLIRETVCDRQSRPPLTELPPGSPETPGLEKLKELMIHCWGSQSENRPSFQDCEPKTNEVYNLVKDKVDAAVSEVKHYLSQHRSSGRNLSAREPSQRGTEMDCPRETMVSKMLDRLHLEEPSGPVPGKCPERQAQDTSVGPATPARTSSDPVAGTPQIPHTLPFRGTTPGPVFTETPGPHPQRNQGDGRHGTPWYPWTPPNPMTGPPALVFNNCSEVQIGNYNSLVAPPRTTASSSAKYDQAQFGRGRGWQPFHK
notes: cDNA amplified from pBOB-FLAG-MmRIPK3 and inserted into pGEX-5X-3; also called recombinant RIPK3; source: E. coli BL21 (DE3), purified on glutathione sepharose 4B beads
Consider B1, for which the binding result is given as “binds”.
